The record followed here is US8889621B2, “Inhibiting binding of FGF23 to the binary FGFR-Klotho complex for the treatment of hypophosphatemia” (New York University, priority 2009, dated 2014).

In the assay the test system is binary FGFR-Klotho complex. The assay is described as follows: Pull-down / co-precipitation of FGF23 proteins with FGFR-Klotho complex. Type of assay: binding. To be noted: HEK293-Klotho cell lysate. As for the experimental part:
A pull-down assay may also be used to confirm the existence of a protein:protein interaction (i.e. FGF23^180-251 binding to the binary FGFR-Klotho complex). One aspect of the present invention utilizes pull-down assays. These assays involved subconfluent cultures of a HEK293 cell line ectopically expressing the FLAG-tagged membrane-spanning form of murine Klotho, which were harvested and lysed. Cell lysate was incubated with FGF23^28-251, FGF23^28-200, FGF23^28-179, FGF23^180-251, or protein sample buffer, and binary complexes of Klotho and endogenous FGFR were isolated from cell lysate using anti-FLAG M2 agarose beads. […]
In parallel, subconfluent HEK293-Klotho cells (Kurosu et al., “Regulation of Fibroblast Growth Factor-23 Signaling by Klotho,” J Biol Chem 281(10):6120-6123 (2006), which is hereby incorporated by reference in its entirety) were transfected with expression vectors for V5-tagged FGFR1c, FGFR3c, or FGFR4 (Kurosu et al., “Regulation of Fibroblast Growth Factor-23 Signaling by Klotho,” J Biol Chem 281(10):6120-6123 (2006), which is hereby incorporated by reference in its entirety) and binding of FGF23 proteins/peptides to Klotho-FGFR complexes isolated from cell lysate was analyzed. […]

binary FGFR-Klotho complex, sequence (O35082 35-1014, one chain of several): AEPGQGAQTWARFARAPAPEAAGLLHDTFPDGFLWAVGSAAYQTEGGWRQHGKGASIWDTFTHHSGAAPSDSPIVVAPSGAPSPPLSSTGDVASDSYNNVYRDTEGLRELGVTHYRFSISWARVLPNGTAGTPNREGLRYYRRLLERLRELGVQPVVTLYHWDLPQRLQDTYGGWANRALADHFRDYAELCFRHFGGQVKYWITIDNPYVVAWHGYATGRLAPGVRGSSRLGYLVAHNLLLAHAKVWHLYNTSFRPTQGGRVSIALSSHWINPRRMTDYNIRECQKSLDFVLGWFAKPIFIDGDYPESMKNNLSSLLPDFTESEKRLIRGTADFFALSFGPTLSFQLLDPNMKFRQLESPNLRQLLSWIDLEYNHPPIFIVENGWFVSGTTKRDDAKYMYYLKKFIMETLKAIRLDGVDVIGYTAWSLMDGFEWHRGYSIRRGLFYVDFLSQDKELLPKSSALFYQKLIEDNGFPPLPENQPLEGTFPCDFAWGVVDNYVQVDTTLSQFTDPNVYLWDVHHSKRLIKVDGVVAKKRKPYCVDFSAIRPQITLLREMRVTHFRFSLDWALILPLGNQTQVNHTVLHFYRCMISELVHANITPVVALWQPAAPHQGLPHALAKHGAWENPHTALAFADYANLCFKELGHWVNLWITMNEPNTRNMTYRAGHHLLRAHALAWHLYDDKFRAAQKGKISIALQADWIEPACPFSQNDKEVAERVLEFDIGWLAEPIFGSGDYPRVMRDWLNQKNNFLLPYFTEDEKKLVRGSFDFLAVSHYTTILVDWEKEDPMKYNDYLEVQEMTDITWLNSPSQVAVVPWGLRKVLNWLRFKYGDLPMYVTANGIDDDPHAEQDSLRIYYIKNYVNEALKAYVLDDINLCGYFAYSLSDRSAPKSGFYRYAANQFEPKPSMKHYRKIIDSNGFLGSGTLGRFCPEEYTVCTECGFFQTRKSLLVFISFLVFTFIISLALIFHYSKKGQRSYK

B1: FGF23^180-251: 72-amino acid C-terminal tail of human FGF23 (S180 to I251), expressed in E. coli (protein, listed as Homo sapiens)
chain: SAEDDSERDPLNVLKPRARMTPAPASCSQELPSAEDNSPMASDPLGVVRGGRVNTHAGGTGPEGCRPFAKFI
Turning to B1, the “co-precipitation with the binary FGFR-Klotho complex” value is “co-precipitated with each of the three binary FGFR-Klotho complexes”.
